Tests used:
[1] = molecular target: AKAP 150 (rat A-kinase anchor protein) (rat) (UniProt P24587); test: cell-based or functional assay
[2] = molecular target: IL-6 (human, in degenerative IVD conditioned media) (human) (UniProt P05231); test: cell-based or functional assay
UniProt P05231, sequence (P05231 30-212 limits assumed): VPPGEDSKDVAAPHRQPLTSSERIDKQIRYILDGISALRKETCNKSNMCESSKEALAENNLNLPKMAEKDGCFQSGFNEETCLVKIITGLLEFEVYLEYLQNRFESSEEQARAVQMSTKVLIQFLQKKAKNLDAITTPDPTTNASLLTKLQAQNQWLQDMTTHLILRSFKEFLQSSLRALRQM

UniProt P24587, sequence (P24587 whole entry): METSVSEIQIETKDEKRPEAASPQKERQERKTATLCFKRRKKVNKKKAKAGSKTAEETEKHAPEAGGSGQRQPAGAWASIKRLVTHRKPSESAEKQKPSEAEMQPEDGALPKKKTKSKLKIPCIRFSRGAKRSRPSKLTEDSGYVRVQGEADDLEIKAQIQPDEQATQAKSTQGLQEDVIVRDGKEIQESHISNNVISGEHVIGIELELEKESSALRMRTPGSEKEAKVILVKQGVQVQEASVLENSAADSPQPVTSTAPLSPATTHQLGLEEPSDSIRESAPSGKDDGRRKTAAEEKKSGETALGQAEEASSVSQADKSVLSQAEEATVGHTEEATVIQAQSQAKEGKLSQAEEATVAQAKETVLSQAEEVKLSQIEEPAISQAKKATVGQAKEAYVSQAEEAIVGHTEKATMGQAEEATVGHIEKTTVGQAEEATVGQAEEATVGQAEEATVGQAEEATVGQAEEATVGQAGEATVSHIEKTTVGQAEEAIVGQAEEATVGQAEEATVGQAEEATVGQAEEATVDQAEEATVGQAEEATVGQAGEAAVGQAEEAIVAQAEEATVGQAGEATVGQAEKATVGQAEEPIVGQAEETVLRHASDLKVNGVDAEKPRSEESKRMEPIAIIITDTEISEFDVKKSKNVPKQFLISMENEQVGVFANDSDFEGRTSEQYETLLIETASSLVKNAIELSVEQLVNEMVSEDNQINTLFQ

| Substance | percentage of rat DRG neurons firing at 39° C. in degenerative IVD conditioned media [1] [%] | maximum firing response of DRG neurons (Boltzmann fit) [2] [%] |
| --- | --- | --- |
| AKAP inhibitor peptide St-Ht31 (Promega) | 15.5 |  |
| Control peptide St-Ht31P (Promega) | 61.9 |  |
| Mouse isotype control antibody (Life Technologies) |  | 66 |

— patent publication US20210380975A1
